Measured values from US20090104178A1.

Legend:
Assay in all cases: SPR (BIAcore X), E12 thiol-coupled to the chip, chemokine injected
mCCL21 (mouse) = mCCL21 (mouse) (UniProt P84444)
mCCL25 (mouse) = mCCL25 (mouse) (UniProt O35903)
mCCL27 (mouse) = mCCL27 (mouse) (UniProt Q9Z1X0)
mCXCL11 (mouse) = mCXCL11 (mouse) (UniProt Q9JHH5)
mCXCL13 (mouse) = mCXCL13 (mouse) (UniProt O55038)
mCXCL14 (mouse) = mCXCL14 (mouse) (UniProt Q9WUQ5)
Chain of mCXCL14 (mouse) (Q9WUQ5 23-99 limits assumed): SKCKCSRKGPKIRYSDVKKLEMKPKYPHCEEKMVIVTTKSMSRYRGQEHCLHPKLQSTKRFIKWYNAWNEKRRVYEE

Chain of mCCL27 (mouse) (Q9Z1X0 26-120 limits assumed): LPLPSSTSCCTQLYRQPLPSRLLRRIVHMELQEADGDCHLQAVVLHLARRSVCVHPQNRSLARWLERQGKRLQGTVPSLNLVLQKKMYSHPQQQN
Chain of mCCL25 (mouse) (O35903 24-144 limits assumed): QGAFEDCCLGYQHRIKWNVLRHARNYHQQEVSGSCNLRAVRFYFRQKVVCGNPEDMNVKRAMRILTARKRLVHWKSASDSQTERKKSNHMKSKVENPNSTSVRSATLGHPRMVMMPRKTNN
Chain of mCCL21 (mouse) (P84444 24-133): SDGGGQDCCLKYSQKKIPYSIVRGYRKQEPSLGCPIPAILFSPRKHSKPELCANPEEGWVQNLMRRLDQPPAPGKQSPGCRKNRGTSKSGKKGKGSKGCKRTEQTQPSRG
Chain of mCXCL13 (mouse) (O55038 22-109 limits assumed): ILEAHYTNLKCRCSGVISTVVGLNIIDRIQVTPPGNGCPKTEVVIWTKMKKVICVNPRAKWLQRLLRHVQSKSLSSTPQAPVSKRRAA
Chain of mCXCL11 (mouse) (Q9JHH5 22-100 limits assumed): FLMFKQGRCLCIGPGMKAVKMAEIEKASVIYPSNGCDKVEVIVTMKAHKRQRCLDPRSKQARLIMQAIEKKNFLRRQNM

Substance: Purified EV E12 protein
- Kd (mCCL21 (mouse)): 0.5 nM
- Kd (mCCL25 (mouse)): 0.7 nM
- Kd (mCCL27 (mouse)): 2 nM
- Kd (mCXCL11 (mouse)): 1 nM
- Kd (mCXCL13 (mouse)): 1.5 nM
- Kd (mCXCL14 (mouse)): 1.5 nM
